Measured values as given in patent US6670328 (INSTITUT PASTEUR DE LILLE, dated 2003).

T1: CD2 on Jurkat cells (human, UniProt P06729 25-351)
T1 construct: whole, on cells
T1 sequence (looked up): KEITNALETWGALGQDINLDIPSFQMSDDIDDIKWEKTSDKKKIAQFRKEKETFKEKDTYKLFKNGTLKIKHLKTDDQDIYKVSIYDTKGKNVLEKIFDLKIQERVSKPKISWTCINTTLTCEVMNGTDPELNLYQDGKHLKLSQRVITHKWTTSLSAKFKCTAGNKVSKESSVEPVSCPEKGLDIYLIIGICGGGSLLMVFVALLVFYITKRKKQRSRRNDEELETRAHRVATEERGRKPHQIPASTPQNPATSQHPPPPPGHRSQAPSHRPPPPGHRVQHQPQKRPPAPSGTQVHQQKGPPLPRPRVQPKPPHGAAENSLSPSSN

B1: secreted ESM-1 protein (Endothelial Cell Specific Molecule-1), purified wild-type form (ligand)
chain: WSNNYAVDCPQHCDSSECKSSPRCKRTVLDDCGCCRVCAAGRGETCYRTVSGMDGMKCGPCLRCQPSNCEDPFGEEFGICKDCPYGTFGMDCRETCNCQSCICDRGTGKCLKFPFFQYSVTKSSNRFVSLTEHDMASGDGNIVREEVVKENAAGSPVMRKWLNPR
notes: The secreted form runs at about 50 kD and is described as glycosylated (a proteoglycan); also called ESM/WT; extracellular ESM-1

Key:
[1] = target: T2, LFA-1 (heterodimeric CD11a/CD18) (human, UniProt P20701 26-1170; P05107 23-769); assay: competition on Jurkat cells at 4 C; HI111 at 1 microg/mL against 35S-labelled 3D-ICAM-1/Fc
T2 construct: whole, on cells; Endogenous LFA-1 on Jurkat cells (and on human PBMC) in the cell assays; In the BIAcore assay and the co-immunoprecipitations it was the whole heterodimer from octylthioglucoside lysates of Jurkat cells; also called LFA-1 molecule; LFA-1 counter receptor
T2 sequence (P20701 26-1170, chain 1 of 2): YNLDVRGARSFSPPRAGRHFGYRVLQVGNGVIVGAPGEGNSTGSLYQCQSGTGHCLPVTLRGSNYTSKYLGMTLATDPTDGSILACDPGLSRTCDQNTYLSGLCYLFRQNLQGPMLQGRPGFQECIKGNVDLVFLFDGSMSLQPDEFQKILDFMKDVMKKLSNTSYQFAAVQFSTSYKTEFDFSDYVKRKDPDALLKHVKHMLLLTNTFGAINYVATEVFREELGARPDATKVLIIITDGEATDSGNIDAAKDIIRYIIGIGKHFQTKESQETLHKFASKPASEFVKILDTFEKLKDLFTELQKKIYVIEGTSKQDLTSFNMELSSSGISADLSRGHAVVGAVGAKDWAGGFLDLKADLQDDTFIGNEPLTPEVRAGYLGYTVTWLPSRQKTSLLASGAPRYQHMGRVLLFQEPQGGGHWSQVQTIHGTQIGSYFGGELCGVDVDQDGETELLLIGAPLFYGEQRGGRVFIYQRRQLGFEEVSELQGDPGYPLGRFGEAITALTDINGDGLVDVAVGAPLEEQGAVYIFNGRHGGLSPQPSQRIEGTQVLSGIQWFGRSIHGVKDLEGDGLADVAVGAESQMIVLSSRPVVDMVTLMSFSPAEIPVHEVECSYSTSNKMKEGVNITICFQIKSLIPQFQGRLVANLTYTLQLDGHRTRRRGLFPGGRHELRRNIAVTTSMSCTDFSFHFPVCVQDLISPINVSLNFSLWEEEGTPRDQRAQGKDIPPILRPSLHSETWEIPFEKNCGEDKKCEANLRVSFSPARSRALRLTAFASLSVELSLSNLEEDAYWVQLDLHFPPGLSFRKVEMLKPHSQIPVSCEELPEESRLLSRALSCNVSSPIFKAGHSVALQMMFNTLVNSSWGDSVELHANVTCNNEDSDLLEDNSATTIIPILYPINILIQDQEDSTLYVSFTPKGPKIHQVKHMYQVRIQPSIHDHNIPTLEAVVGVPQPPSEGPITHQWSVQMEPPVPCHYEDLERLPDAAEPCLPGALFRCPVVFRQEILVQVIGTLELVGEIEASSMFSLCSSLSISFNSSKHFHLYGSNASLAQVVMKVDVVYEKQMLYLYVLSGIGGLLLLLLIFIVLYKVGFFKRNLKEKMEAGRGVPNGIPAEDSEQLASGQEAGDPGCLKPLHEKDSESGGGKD
T2 sequence (P05107 23-769, chain 2 of 2): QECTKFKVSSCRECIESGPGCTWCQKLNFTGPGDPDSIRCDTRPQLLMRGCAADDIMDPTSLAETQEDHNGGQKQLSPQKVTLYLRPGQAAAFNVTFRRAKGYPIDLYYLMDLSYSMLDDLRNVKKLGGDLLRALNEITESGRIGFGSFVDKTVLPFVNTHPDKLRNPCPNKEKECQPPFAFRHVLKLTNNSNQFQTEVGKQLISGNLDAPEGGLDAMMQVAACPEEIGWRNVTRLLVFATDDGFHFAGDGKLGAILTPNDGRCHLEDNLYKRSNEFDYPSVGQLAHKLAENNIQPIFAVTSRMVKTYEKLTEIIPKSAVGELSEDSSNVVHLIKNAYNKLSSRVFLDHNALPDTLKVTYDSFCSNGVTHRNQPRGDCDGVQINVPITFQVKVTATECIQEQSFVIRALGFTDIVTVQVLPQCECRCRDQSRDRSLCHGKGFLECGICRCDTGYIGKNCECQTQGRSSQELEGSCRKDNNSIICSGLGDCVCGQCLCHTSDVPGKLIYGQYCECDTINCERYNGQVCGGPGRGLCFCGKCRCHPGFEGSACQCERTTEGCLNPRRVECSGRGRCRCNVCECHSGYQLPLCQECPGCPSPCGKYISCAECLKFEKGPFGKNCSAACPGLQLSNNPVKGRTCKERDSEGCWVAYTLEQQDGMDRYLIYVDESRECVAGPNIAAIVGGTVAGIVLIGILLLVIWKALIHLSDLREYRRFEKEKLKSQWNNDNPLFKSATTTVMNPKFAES

[2] = target: T3, 3D-ICAM-1/Fc chimeric protein (three first extracellular domains of ICAM-1 fused to the Fc fragment of human … (human, UniProt P05362 28-311, limits assumed, 35S methionine metabolic label in the ICAM-1 binding assays)); assay: coprecipitation
T3 construct: domain: three first extracellular domains of ICAM-1; Expressed in 293 cells and purified on an anti-human Fc agarose column; also called soluble ICAM-1; soluble ICAM-1/Fc; not shown: Fc fragment of human IgG1
T3 sequence (P05362 28-311 limits assumed, stated change not applied): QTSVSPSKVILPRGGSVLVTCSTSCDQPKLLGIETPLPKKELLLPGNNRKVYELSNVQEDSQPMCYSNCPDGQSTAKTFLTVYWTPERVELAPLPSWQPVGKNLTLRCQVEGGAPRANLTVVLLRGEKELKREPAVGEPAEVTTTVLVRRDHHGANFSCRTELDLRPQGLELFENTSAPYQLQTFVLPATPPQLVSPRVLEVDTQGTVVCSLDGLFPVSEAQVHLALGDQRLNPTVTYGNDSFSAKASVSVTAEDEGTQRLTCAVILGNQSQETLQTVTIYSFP

[3] = target: T2, LFA-1 (heterodimeric CD11a/CD18); assay: BIAcore, from the ratio of the rate constants; ESM-1 over LFA-1 captured by immobilized HI111
Protocol: The affinity constant was calculated from the equation Kd=kd/ka.
To better define the interaction between LFA-1 and ESM-1, a real-time observation by BIAcore analysis was carried out. Sensor chip was filled with detergent lysates of Jurkat cells in order to capture functional LFA-1 molecules. Specific binding of the heterodimeric form of LFA-1 to the anti-CD11a mAb coupled censorship was observed. In this assay, anti-CD11a mAb (HI111) was immobilized on the surface of the carboxymethyl 5 sensor chip as described in Materials and Methods. The binding of heterodimeric LFA-1 to mAb coated chip was consistently detected. The presence of both CD11a chain and CD18 chain was checked by injecting either another anti-CD11a mAb (G43-25B), or an anti-CD18 mAb in the LFA-1 captured channel. As reported in FIG. 18A, LFA-1 was strongly captured under its heterodimeric form, which was essential to keep functionality of LFA-1. Next, we have also examined the interaction of LFA-1 and purified human ESM-1 by BIAcore biosensor. […] No interaction was detected between the mAb coated surface or control surface and ESM-1 at the highest concentration used in this experiment (data not shown). Purified ESM-1 was then injected at indicated concentrations to the LFA-1 captured surface, and the response (in resonance units) versus time (in seconds) was recorded. […]

[4] = target: T1, CD2 on Jurkat cells; assay: co-immunoprecipitation with anti-CD2 mAb from lysates of Jurkat cells incubated with 300 ng/mL ESM-1; ESM-1 ELISA of eluate
Protocol: (§1) FIGS. 17A–B: An anti-CD11a mAb coimmunoprecipitates ESM-1 with LFA-1 and increases ESM-1 binding to Jurkat cells. A. Coimmunoprecipitation of ESM-1 with LFA-1 : Jurkat cells were incubated with ESM-1 for 1 hour at 4° C. and immunoprecipitations were done with different mAbs according to the procedure previously described (none, anti-ESM-1 (MEC15), anti-CD3, anti-CD11a (1), ie clone HI111, anti-CD11a (2), ie clone G43-25B anti-CD18, anti-CD44, anti-CD2). Beads were washed and eluted. ESM-1 contents from eluates were analyzed by a specific ELISA. B. Activation of the binding of ESM-1 by an anti-CD11a mAb: Jurkat cells were firstly incubated in binding medium with different mAbs (none, anti-CD11a (1), anti-CD11a (2), IgG control) for 1 h at room temperature and secondly with ESM-1 for 1 h at 4° C. Cells were washed and lysed. ESM-1 was quantified by a specific ELISA in lysates (n=5).

[5] = target: T4, CD44 on Jurkat cells (human, UniProt P16070 21-742); assay: co-immunoprecipitation with anti-CD44 mAb from lysates of Jurkat cells incubated with 300 ng/mL ESM-1; ESM-1 ELISA of eluate
T4 construct: whole, on cells
T4 sequence (P16070 21-742): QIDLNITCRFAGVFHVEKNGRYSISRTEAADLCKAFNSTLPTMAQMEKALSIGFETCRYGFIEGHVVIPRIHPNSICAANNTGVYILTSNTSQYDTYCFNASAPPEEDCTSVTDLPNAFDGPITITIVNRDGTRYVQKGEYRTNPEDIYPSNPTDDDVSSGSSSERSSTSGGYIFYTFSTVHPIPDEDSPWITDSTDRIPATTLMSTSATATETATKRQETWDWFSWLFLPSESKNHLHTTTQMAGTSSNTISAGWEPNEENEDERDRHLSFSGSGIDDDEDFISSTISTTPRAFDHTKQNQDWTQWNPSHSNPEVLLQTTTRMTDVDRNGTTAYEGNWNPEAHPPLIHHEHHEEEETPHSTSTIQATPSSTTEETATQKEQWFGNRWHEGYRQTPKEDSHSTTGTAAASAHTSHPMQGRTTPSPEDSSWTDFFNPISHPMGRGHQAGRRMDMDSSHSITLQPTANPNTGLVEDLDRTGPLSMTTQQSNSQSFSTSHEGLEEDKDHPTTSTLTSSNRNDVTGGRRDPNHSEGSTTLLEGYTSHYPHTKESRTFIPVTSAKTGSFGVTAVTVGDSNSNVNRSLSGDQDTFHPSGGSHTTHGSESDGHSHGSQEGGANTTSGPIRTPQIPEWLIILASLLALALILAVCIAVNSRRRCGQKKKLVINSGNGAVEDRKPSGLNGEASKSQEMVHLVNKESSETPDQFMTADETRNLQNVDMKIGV
Protocol: as §1

[6] = target: T2, LFA-1 (heterodimeric CD11a/CD18); assay: BIAcore, purified ESM-1 (5 concentrations, 50 to 300 nM) over LFA-1 from Jurkat lysate captured by immobilized HI111, 25 C, PBS with 1 mM MgCl2 and 1 mM MnCl2
Protocol: LFA-1 molecules from the Jurkat lysates could only be fixed by immuno-affinity procedure. 200 millions of Jurkat cells were lysed in 2 mL of lysis buffer (PBS, 1 mM MgCl2, 1 mM MnCl2, complete anti-proteases cocktail EDTA-free and 5 mM octylthioglucoside) for 30 min at 4° C. After removal of insoluble material by centrifugation and incubation in a sonication bath, the lysate was injected at a flow rate of 5 microL/min for 30 min at 25° C. in order to immobilize approximatively 1500 RU of LFA-1 molecules. Next, CD11a mAb (G43-25B), CD18 mAb and purified ESM-1 were diluted in running buffer (PBS, 1 mM MgCl2, 1 mM MnCl2) and injected at a flow rate of 5 microL/min for 5 min at 25° C. The association rate constant (ka) and the dissociation rate constant (kd) were fitted calculated according to the BIAevaluation software version 3.1 provided by the manufacturer. The affinity constant was calculated from the equation Kd=kd/ka.
To better define the interaction between LFA-1 and ESM-1, a real-time observation by BIAcore analysis was carried out. Sensor chip was filled with detergent lysates of Jurkat cells in order to capture functional LFA-1 molecules. […] The binding of heterodimeric LFA-1 to mAb coated chip was consistently detected. […] No interaction was detected between the mAb coated surface or control surface and ESM-1 at the highest concentration used in this experiment (data not shown).

| Molecule | labelled ICAM-1 still bound (cpm) [1] | binding result [2] | Kd [3] | binding result [4] | binding result [5] | koff [6] | kon [6] |
| --- | --- | --- | --- | --- | --- | --- | --- |
| anti-CD11a mAb clone HI111 (antibody) | 837 cpm | – | – | – | – | – | – |
| B1 | – | no binding | 18.7 nM | no binding | no binding | 0.000825 s⁻¹ | 44100 M⁻¹ s⁻¹ |
